{
  "source": "patent WO2007014992A2",
  "about": "(dated 2007)",
  "biological_target": "T1, human LDL (Low Density Lipoprotein) receptor (human, UniProt P01130 22-860)",
  "T1 construct": "whole, on cells; Endogenous receptor on human A549 and MDA-MB-231 cells (flow cytometry); also called LDL-R; human LDL-R",
  "T1 sequence (P01130 22-860)": "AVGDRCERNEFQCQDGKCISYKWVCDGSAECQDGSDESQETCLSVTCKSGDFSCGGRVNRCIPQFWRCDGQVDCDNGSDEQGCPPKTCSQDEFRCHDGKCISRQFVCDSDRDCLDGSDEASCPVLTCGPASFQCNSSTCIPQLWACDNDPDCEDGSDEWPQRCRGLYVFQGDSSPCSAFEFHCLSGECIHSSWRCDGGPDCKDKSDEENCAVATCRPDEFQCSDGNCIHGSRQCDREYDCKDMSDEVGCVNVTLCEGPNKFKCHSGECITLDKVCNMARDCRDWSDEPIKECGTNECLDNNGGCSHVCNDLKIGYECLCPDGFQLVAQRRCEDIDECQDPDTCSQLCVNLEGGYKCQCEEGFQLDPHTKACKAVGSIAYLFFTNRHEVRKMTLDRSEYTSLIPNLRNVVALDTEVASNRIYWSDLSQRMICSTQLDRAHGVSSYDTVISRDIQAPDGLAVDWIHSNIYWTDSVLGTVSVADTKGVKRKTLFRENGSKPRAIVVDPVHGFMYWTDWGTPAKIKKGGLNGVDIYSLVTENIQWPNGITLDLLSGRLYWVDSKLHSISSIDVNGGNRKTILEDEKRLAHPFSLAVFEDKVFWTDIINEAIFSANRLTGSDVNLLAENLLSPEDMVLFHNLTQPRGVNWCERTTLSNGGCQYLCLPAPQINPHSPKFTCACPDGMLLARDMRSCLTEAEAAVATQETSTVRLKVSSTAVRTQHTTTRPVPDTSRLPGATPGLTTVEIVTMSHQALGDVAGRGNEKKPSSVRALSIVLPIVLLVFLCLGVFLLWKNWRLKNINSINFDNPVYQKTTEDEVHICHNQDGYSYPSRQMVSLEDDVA",
  "assay": "Western blot of total protein extracts of MDA-MB-231 cells",
  "data": [
    {"binder": "Anti-LDL-R 5E5 monoclonal antibody produced by the hybridoma H5E5 (CNCM I-3488) (antibody, V domains shown, also called anti-LDL-R 5E5 antibodies; murine antibody 5E5) VH: QVQLQQSGPELVRPGVSVKISCKGSGYTFTDYAMHWVKQSHAQSLEWIGFISTYSGNTNYNQKFKGRATMTVDKSSSTAYMELARLTSEDSAIYYCARPNYYGSSPGGFAYWGQGTLVTVSA VL: ENVLTQSPAIMSASLGEKVTMSCRARSSVNYMYWYQQKSDASPKLWIYYTSNLAPGVPARFSGSGSGNSYSLTISSMEGEDAATYYCQQFTSSPSFGGGTKLEIK", "values": [
      {"measurement": "binding result", "result": "binds"}
    ]}
  ]
}
